To fix the notation:
B1: 155B11C6-z3 (antibody, V domains shown)
VH: QVQLVQSGAEVKKPGASVKVSCKASGYTFTSYTMHWVRQAPGQGLEWMGYIDPKSDYNYYNQKFKDRVTMTRDTSISTAYMELSRLRSDDTAVYYCARGFFKGYFDVWGQGTTVTVSS
VL: EIVLTQSPGTLSLSPGERATLSCSVSSSISSSNLHWYQQKPGQAPRPWIYGTSNLASGVPDRFSGSGSGTDYTLTISRLEPEDFAVYYCQQWTSYPFTFGQGTKLEIK
notes: Humanized, human IgG1 constant region; also called 155B11C6 HU-VH1-0 / HU-VL1-2
B2: 155B11C6-z4 (antibody, V domains shown)
VH: B1 VH
VL: B1 VL with A44S, D71S
notes: Humanized, human IgG1 constant region; also called 155B11C6 HU-VH1-0 / HU-VL1-3
B3: 155B11C6-z7 (antibody, V domains shown)
VH: B1 VH with M48I, V68A, M70L
VL: B1 VL
notes: Humanized, human IgG1 constant region; also called 155B11C6 HU-VH1-2 / HU-VL1-2
B4: 152A1D12-z17 (antibody, V domains shown)
VH: QVQLVQSGAEVKKPGASVKVSCKASGYTFTDYNMHWVKQAPGQRLEWIGYIYRNNGYNGYNQKFKNKATLTVDTSASTAYMELSSLRSEDTAVYYCARNYWRGAMDYWGQGTTVTVSS
VL: EIVLTQSPATLSLSPGERATLSCSASSSISYMHWYQQKPGQAPRLLIYDTSKLASGIPARFSGSGSGTDFTLTISSLEPEDFAVYYCHQRSSYPWTFGGGTKVEIK
notes: Humanized, human IgG1 constant region; also called 152A1D12 HU-VH1-3 / HU-VL2-0
B5: 152A1D12-z13 (antibody, V domains shown)
VH: B4 VH
VL: B4 VL with Q41K, R44K, I57V, A59S, E78Q, V84T
notes: Humanized, human IgG1 constant region; also called 152A1D12 HU-VH1-3 / HU-VL1-0
B6: 152A1D12-z18 (antibody, V domains shown)
VH: B4 VH
VL: B4 VL with L46W, I57V
notes: Humanized, human IgG1 constant region; also called 152A1D12 HU-VH1-3 / HU-VL2-1
B7: 134C7B1 chimeric mAb (antibody, V domains shown)
VH: AVQLQQSGPELLKPGASVKISCKASGYTFTDYTMHWVKQSHGKSLEWIGGINPNYGGTSYNETFKDKATLTVDKSSNTAYMELRSLTSEDSAVYYCARIPYGSYPMDYWGQGTSVTVSS
VL: DIVMSQSPSSLTVSVGEKVTMSCKSSQSLLYSSNQKIYLAWYQQKPGQSPKLLISWASTRESGVPDRFTGSGSGTDFTLTISSVKAEDLADYYCQQYYRYRTFGGGTKLEIK
notes: Mouse variable regions fused to human IgG1 constant region
B8: 152A1D12 chimeric mAb (antibody, V domains shown)
VH: EVQLQQSGPELVKPGASVKISCKASGYTFTDYNMHWVKQSHGKSLEWIGYIYRNNGYNGYNQKFKNKATLTVDSSSSTAYMELRSLTSEDSAVYYCARNYWRGAMDYWGQGTSVTVSS
VL: QIVLTQSPAIMSASPGEKVTMTCSASSSISYMHWYQQKPGTSPKRWIYDTSKLASGVPARFSGSGSGTSYSLTISSMEAEDAGTYYCHQRSSYPWTFGGGTKLEIK
notes: as for B7
B9: 143H10E4 chimeric mAb (antibody, V domains shown)
VH: QVQLQQSDAELVKPGASVKISCKASGSTFTDHTIHWVKQRPEQGLEWIGYIYPVYGYTQNNEKFKGKATLTADKSSSTAYMQLNSLTSEDSAVYFCARSRDSNPYYFDYWGQGTTLTVSS
VL: EIVLTQSPALMAASPGEKVTITCTVSSSISSSNLHWYQQKSGTSPKPWIYGTSNLASGVPVRFSGSGSGTSYSLTISSMEAEDAATYYCQQWSSYPFTFGSGTKLKMK
notes: as for B7
B10: 155B11C6 chimeric mAb (antibody, V domains shown)
VH: QVQLQQSGAELARPGASVKMSCKASGYTFTSYTMHWVKQRPGQGLEWIGYIDPKSDYNYYNQKFKDKATLTADKSSSTAYMQLSGLTSEDSTVYYCARGFFKGYFDVWGAGTTVTVSS
VL: B9 VL with A9P, T24S, G42E, V61I, S93T, S101A, K106E, M107L
notes: as for B7
B11: 120B10C5 chimeric mAb (antibody, V domains shown)
VH: QVQLQQSGAELAKPGASVKLSCRTSGYTFTNYWMHWVKQRPGQGLEWIGYINPSSGYTKYNQKFKDKATLTADKSSSTAYMQLSSLTYEDSAVHYCARSLNYYDSGYWYFDVWGTGTAVTVSS
VL: DIVLTQSPASLAVSLGQRATISCRASQSVSTSSYSYMHWYQQKPGQPPKLLIKYASNLESRVPARFSGSGSGTDFTLNIHPVEEEDSATYYCQHSWEIPWTFGGGTKLEIK
notes: as for B7
B12: 16C18 chimeric mAb (antibody, V domains shown)
VH: QVQLQQSGAELAKPGTSVKMSCKASGYNFTNYWMNWVKQRPGQGLEWIGTFNPSYGYTEYNQKFKDKAILTADKSSSTAYMQLNSLTSEDSAVYYCARRSSHFDYWGQGTTLTVSS
VL: DIVMSQSPSSLAVSAGEKVTMSCKSSQSLLNSRTRTNYLAWYQQKPGQSPKLLIYWASTRESGVPDRFTGSGSGTDFTLTISSVQAEDLAVYYCKQSYNLPTFGGGTKLEIK
notes: also called 16C8

Positions count from the first letter of the chain named.

The first assay addresses T1, human CDH17, full length, expressed on cells (HEK293-hCDH17); AsPC-1, HCT-8, AGS, LoVo, KATO III, HT-29 tumor … (human, UniProt Q12864 23-832).
T1 construct: also called human CDH17 expressed on tumor cells
T1 sequence: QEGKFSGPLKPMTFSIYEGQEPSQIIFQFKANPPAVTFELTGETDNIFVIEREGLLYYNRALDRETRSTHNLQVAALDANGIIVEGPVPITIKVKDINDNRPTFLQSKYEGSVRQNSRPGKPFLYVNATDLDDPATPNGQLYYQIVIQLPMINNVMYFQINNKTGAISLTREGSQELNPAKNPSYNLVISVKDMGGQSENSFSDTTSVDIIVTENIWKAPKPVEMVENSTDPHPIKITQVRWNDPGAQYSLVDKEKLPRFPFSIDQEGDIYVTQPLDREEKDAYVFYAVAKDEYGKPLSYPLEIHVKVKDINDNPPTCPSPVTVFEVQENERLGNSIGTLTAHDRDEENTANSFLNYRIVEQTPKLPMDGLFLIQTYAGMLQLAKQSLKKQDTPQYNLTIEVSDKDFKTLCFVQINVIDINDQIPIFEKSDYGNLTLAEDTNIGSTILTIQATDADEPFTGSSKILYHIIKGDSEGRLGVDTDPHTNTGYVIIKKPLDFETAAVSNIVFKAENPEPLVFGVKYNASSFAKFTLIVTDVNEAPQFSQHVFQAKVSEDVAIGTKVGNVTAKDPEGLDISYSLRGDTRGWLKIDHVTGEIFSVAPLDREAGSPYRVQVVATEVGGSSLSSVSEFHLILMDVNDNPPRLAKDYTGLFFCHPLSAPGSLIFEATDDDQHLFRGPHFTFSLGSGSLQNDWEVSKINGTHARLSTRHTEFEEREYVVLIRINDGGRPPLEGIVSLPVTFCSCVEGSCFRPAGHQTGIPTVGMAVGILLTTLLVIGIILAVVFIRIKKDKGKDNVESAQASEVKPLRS
The experiment in a line: flow cytometry, AGS cells. For orientation: Flow cytometry measures light scatter and fluorescence of single cells or particles in a stream.
Consider B1, for which the binding result is listed as “binds”.

On to B2, for which the binding result is recorded as “binds”.

Turning to B3, the binding result is “binds”.

Take B4: the binding result is recorded as “binds”.

With B5, the binding result is on record as “binds”.

Take B6: the binding result is “binds”.

In a further assay the target is T2, human CDH16 protein (hCDH16-his, Novoprotein, Cat. No. CJ16) (human, UniProt O75309 19-786).
T2 construct: Bought; also called human CDH16-his
T2 sequence (looked up): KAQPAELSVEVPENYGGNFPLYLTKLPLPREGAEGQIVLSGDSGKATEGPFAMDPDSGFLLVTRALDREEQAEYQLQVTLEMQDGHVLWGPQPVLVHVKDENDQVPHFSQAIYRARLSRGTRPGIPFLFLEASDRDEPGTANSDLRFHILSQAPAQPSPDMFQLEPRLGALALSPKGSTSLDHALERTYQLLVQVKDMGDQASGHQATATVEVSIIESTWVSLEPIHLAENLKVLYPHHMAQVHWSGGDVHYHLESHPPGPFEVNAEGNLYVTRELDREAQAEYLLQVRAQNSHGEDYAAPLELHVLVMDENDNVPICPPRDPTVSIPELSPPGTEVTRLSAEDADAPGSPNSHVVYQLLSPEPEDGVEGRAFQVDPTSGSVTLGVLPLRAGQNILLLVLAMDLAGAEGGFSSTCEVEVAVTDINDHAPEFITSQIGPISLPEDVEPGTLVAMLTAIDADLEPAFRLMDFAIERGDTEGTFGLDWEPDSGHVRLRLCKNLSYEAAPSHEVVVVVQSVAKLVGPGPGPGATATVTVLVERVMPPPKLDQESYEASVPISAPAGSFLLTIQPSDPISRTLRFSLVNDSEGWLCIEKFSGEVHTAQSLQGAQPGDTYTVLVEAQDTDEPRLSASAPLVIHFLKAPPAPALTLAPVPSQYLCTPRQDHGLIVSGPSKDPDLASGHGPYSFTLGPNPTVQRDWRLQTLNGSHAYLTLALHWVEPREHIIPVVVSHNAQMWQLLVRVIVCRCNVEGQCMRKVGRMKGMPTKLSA
The experiment in a line: ELISA, hCDH16-his coated at 1 ug/mL. On the technique in general: In an ELISA, binding on a coated surface is turned into a signal by an enzyme label.
As to B7, the binding result was “no binding (tested: titrated from 100 nM)”.

Turning to B8, the binding result is “no binding (tested: titrated from 100 nM)”.

With B9, the binding result is on record as “no binding (tested: titrated from 100 nM)”.

For the molecule B10, the binding result was “no binding (tested: titrated from 100 nM)”.

With B11, the binding result is recorded as “no binding (tested: titrated from 100 nM)”.

B12: the binding result is reported as “no binding (tested: titrated from 100 nM)”.

A further assay has as its target T3, hCDH17-his (full length extracellular domain of human CDH17, Q23-M787, his tag at the C-terminal) (human, UniProt Q12864 23-787).
T3 construct: Limits of the construct (UniProt Q12864, Q23-M787, C-terminal his tag); also called human CDH17-his protein; human CDH17 protein
T3 sequence: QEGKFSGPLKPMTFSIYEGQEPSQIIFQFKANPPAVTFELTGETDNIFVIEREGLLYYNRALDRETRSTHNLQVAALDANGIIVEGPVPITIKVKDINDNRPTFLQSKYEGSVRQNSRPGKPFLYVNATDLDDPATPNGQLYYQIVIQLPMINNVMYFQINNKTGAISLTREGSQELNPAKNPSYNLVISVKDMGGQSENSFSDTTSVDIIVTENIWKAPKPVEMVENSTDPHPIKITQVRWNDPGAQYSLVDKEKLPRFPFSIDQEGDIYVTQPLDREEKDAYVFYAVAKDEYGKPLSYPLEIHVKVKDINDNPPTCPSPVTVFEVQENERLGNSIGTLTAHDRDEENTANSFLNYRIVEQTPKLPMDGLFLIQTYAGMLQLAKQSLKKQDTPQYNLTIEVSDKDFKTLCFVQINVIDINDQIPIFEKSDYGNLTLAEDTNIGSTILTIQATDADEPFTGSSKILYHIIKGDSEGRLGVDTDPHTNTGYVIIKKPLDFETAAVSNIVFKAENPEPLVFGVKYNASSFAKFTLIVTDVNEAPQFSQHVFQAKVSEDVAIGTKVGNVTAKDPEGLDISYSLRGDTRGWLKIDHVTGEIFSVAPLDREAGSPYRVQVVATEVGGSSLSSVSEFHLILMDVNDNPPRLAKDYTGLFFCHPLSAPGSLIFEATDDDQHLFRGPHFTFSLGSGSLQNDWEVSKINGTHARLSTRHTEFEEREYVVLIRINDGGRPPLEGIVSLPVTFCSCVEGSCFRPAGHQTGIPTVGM
Nature of the assay: ELISA, hCDH17-his coated at 2 ug/mL.
Take B7: the binding result is recorded as “binds”.

In the case of B8, the binding result is “binds”.

On to B9, for which the binding result was “binds”.

B10: the binding result is “binds”.

As for B11, the binding result is listed as “binds”.

For B12, the binding result is “binds”.

Another assay has as its target T1, human CDH17, full length, expressed on …. The experiment in a line: flow cytometry, HEK293-hCDH17 cells.
Regarding B7, the binding result is on record as “binds”.

B8: the binding result was “binds”.

As to B9, the binding result is on record as “binds”.

Consider B10, for which the binding result is “binds”.

For the molecule B11, the binding result is reported as “binds”.

With B12, the binding result is reported as “binds”.

For the next assay, the target named is T3, hCDH17-his (full length extracellular …). Nature of the assay: SPR (Biacore 8K), antibody captured on Protein A chip, hCDH17-his injected. (SPR reads the build-up and loss of mass on a sensor chip optically.)
In the case of B1, the binding result was “binds”.

For the molecule B2, the binding result is reported as “binds”.

For B3, the binding result is “binds”.

Turning to B4, the binding result is reported as “binds”.

Turning to B5, the binding result was “binds”.

Regarding B6, the binding result is “binds”.

The record behind these values is patent EP4806514A2 (Lepu Biopharma Co., Ltd., dated 2025).
